For the assay, the target named is MN (Homo sapiens, UniProt Q16790). The assay can be described thus: Surface plasmon resonance (BIAcore) binding to MN protein. Particulars: soluble MN, panning-derived full-length antibodies, read-out: Affinity (Kd). Also noted: The MN protein represents the entire extra-cellular domain of the protein with a C-terminal histag for purification; His tag (C); made in house; host or cells: HKB-11 (mammalian cell line). The protocol: The binding interactions between MN protein and the antibodies of this invention were analyzed using surface plasmon resonance technology on a BIAcore 3000 instrument (BIAcore, Uppsala, Sweden). For the binding of full-length IgGs (1e4, 1aa1, and 3ee9), goat anti-human IgG Fc was covalently coupled to the CM5 biosensor chip at high density using a standard amine coupling kit (BIAcore, Uppsala, Sweden). A capture assay was then used to bind these IgG to the anti-human IgG Fc-immobilized surface, aiming for a 300 response unit BIAcore signal. […] After ligand binding, the flow rate was then increased to 25 μl/min and various concentrations of MN analyte (e.g., range of 50 nM to 1 nM) were flowed over the surface for 10 minutes such that the association phase could be monitored. […] The binding of Fabs to MN was similarly determined except that an anti-human-Fab IgG was immobilized onto the chip and used to capture the Fabs prior to the assessment of MN binding.
Binding interactions between HKB11-expressed human MN protein and human full-length anti-MN MAbs were analyzed using surface plasmon resonance technology on a BIAcore 3000 instrument (BIAcore, Uppsala, Sweden). […] After ligand binding, flow rate was increased to 25 ul/min and MN analyte (50 nM to 1 nM) was flowed over the surface for 10 min such that the association phase could be monitored. […]

B1: 3a4: anti-MN antibody; CDRs SEQ ID NOS: 60, 66, 73, 108, 110, and 112 (antibody, V domains shown)
VH: QVELVESGGGLVQPGGSLRLSCAASGFTFSDYSINWVRQAPGKGLEYVSNISYSGSSTYYADSVKGRFTISRDNSKNTLYLQMNSLRAEDTAVYYCARFKYSGGSDSWGQGTLVTVSS
VL: DIELTQPPSVSVAPGQTARISCSGDNLPDFYVHWYQQKPGQAPVLVISEDNKRPSGIPERFSGSNSGNTATLTISGTQAEDEADYYCSTYGYTYSYSVFGGGTKLTVL
For the molecule B1, the Kd (commonly a measure of binding affinity in units of concentration) stood at 1 nM.

Source of the values: patent US20120301468A1, “ANTI-MN ANTIBODIES AND METHODS OF USING SAME” (BAYER HEALTHCARE LLC, priority 2005, published 2012).
